Source: the supplement of paper PMC10065799, “High-throughput profiling of sequence recognition by tyrosine kinases and SH2 domains using bacterial peptide display” (eLife, 2023)

What was measured:
[1] = tested on: c-Src; assay: phosphorylation enrichment, bacterial display (enrichment ratio); higher = better substrate or ligand; peptides without Tyr show the background
[2] = biological target: Hck (UniProt P08631); assay: as above
[3] = biological target: EPHB1 (UniProt P54762); assay: as above
Chain of EPHB1 (P54762 whole entry, looked up): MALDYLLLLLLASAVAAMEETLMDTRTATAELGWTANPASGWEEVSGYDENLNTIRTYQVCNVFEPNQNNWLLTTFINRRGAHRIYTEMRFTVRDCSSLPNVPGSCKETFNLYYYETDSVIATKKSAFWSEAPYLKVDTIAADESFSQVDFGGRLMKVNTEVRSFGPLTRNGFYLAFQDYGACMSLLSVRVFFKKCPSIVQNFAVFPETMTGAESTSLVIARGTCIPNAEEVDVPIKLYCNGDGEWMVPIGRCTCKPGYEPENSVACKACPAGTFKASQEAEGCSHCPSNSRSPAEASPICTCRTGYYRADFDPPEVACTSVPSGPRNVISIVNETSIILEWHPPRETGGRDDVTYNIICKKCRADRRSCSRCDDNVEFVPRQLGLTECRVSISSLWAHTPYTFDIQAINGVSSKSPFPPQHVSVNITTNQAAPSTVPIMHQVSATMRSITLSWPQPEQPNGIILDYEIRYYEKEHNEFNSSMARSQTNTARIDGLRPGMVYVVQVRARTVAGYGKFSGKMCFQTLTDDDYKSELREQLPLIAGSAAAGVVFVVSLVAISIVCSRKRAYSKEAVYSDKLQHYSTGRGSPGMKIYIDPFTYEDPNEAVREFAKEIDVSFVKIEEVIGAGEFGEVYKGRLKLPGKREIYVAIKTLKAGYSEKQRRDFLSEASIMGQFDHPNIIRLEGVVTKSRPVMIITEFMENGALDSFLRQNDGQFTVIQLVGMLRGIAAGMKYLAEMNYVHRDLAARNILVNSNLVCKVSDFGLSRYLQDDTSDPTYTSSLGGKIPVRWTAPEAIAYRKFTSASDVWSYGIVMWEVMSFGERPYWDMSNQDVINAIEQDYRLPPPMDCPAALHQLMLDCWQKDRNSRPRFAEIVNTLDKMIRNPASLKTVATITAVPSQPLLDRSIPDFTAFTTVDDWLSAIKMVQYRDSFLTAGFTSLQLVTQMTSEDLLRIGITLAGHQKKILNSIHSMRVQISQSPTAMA

[4] = biological target: EPHB2 (UniProt P29323); assay: as above
Chain of EPHB2 (P29323 whole entry, looked up): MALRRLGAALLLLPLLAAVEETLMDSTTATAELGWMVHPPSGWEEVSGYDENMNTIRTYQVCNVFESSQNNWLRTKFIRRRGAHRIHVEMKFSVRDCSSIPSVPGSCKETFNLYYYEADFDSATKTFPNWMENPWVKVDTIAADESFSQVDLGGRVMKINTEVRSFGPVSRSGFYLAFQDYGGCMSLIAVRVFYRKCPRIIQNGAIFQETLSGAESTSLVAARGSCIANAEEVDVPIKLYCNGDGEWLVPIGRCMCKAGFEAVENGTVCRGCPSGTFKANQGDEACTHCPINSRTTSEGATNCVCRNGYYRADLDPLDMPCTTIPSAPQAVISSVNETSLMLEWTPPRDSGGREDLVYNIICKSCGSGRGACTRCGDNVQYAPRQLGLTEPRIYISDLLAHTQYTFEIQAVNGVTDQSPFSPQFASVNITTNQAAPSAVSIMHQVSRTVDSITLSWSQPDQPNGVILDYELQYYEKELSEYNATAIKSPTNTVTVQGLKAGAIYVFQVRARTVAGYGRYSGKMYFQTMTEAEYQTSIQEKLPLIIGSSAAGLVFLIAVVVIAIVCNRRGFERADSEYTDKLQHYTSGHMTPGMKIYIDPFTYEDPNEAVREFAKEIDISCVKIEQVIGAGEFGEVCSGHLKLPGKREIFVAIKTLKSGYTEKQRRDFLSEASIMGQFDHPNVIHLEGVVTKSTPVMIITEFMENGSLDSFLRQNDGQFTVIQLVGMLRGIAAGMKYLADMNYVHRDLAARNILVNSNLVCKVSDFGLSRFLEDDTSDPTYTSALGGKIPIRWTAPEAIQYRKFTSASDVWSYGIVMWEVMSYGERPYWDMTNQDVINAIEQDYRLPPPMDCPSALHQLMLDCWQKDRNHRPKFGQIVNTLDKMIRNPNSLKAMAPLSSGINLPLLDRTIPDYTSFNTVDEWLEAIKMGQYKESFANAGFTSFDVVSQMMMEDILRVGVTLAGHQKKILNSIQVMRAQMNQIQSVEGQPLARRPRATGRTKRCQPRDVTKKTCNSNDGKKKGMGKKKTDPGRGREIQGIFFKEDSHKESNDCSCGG

[5] = tested on: c-Abl (mouse); assay: as above
[6] = biological target: Fes (UniProt P07332); assay: as above
[7] = biological target: FGFR1 (UniProt P11362); assay: as above
Chain of FGFR1 (P11362 whole entry, looked up): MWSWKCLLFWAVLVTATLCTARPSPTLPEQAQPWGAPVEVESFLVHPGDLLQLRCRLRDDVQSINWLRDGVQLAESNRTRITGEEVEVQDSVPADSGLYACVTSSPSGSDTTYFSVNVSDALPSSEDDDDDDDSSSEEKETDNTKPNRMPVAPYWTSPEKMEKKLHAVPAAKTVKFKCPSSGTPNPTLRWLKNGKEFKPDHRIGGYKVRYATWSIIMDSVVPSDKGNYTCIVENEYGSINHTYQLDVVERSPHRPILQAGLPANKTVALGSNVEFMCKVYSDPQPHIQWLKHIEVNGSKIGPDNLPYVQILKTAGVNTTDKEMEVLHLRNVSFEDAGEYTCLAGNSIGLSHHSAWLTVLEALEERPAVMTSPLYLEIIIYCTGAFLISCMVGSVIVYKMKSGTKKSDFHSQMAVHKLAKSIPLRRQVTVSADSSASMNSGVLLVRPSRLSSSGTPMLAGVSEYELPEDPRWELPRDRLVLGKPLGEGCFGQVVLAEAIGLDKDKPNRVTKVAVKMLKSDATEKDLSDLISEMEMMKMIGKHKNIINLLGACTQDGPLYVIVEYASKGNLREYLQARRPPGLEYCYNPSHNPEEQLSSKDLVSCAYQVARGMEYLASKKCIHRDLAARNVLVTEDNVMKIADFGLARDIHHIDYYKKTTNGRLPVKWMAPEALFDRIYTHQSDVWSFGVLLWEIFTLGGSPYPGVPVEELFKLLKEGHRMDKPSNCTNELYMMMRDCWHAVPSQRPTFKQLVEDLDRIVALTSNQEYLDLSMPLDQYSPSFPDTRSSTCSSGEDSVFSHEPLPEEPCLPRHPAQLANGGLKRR

[8] = biological target: Fyn (UniProt P06241); assay: as above
Chain of Fyn (P06241 whole entry, looked up): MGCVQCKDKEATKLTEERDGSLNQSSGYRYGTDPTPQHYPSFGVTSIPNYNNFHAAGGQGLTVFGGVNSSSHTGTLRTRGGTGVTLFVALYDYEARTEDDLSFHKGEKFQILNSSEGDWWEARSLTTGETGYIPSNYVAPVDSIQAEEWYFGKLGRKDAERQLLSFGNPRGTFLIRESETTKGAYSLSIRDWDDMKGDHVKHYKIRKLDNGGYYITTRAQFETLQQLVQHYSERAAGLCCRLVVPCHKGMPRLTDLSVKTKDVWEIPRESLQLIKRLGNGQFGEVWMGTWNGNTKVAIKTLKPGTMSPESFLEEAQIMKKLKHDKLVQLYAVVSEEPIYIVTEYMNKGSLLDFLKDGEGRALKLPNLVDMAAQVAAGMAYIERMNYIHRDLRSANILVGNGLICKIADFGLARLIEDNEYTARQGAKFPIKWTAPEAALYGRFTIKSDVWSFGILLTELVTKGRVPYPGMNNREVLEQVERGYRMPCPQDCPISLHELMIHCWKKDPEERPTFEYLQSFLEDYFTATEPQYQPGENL

[9] = tested on: Fer (mouse); assay: as above
[10] = biological target: Jak2 (UniProt O60674); assay: as above
[11] = tested on: AncSZ; assay: as above
[12] = biological target: MERTK (UniProt Q12866); assay: as above
Chain of MERTK (Q12866 whole entry, looked up): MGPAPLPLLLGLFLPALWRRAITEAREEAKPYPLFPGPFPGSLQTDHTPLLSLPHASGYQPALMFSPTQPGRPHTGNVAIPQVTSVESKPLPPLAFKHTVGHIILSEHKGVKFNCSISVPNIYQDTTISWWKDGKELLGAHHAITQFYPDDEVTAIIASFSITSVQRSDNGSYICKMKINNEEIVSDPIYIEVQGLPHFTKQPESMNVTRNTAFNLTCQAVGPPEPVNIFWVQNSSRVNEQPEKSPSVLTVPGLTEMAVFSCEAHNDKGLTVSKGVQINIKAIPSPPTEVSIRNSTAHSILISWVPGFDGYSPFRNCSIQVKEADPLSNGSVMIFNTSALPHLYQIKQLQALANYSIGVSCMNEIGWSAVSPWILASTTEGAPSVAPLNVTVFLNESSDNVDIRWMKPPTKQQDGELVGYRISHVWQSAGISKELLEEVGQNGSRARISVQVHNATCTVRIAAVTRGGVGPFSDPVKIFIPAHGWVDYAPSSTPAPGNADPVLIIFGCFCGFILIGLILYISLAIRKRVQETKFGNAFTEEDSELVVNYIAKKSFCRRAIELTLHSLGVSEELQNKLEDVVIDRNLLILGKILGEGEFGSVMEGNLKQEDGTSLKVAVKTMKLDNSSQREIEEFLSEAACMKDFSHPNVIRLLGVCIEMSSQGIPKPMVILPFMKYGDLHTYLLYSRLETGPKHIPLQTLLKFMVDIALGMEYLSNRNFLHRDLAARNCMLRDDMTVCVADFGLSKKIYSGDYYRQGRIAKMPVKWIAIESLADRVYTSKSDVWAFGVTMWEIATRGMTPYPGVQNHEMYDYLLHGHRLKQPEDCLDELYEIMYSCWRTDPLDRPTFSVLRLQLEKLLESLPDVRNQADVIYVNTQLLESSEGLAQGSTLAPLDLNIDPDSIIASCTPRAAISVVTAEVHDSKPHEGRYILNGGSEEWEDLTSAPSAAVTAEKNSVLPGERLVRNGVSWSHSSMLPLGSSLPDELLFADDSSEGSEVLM

[13] = biological target: FGFR3 (UniProt P22607); assay: as above
[14] = biological target: Grb2 SH2 (UniProt P62993); assay: SH2 binding enrichment of the phosphorylated peptide, bacterial display (enrichment ratio); higher = better substrate or ligand; peptides without Tyr show the background
[15] = biological target: SHP2-C SH2; assay: as above
[16] = biological target: c-Src SH2; assay: as above
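For SH2 binding enrichment of the phosphorylated peptide, bacterial display in this document: peptide library displayed on the E. coli surface as eCPX fusions, selected cells deep-sequenced, score is each peptide's frequency after selection divided by its frequency in the input.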
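For phosphorylation enrichment, bacterial display in this document: 11-residue human phosphosite peptides and single-mutation variants displayed on the E. coli surface, counted by deep sequencing, each peptide's frequency after selection divided by its frequency in the unselected input library; frequency after pTyr selection over input frequency; kinase dosed for 20-30% of maximal phosphorylation in three min.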

Chain of Hck (P08631 whole entry, looked up): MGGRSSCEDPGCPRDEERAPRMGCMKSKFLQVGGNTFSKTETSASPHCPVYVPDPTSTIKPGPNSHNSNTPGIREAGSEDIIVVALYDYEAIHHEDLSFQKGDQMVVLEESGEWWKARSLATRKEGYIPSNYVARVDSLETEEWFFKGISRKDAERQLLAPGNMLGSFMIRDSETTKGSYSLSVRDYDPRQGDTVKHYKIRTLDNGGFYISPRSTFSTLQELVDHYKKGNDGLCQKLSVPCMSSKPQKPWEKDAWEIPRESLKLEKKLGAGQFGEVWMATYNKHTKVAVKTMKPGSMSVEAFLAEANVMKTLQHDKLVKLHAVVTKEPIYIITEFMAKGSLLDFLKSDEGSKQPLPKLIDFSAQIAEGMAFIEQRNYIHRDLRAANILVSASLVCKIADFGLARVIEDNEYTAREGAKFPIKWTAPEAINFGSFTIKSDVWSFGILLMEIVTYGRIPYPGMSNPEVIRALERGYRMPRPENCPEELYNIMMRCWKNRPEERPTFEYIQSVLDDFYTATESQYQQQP

Row | Sequence | SH2 binding enrichment [14] | SH2 binding enrichment [15] | SH2 binding enrichment [16] | phosphorylation enrichment [1] | phosphorylation enrichment [2] | phosphorylation enrichment [3] | phosphorylation enrichment [4] | phosphorylation enrichment [5] | phosphorylation enrichment [6] | phosphorylation enrichment [7] | phosphorylation enrichment [8] | phosphorylation enrichment [9] | phosphorylation enrichment [10] | phosphorylation enrichment [11] | phosphorylation enrichment [12] | phosphorylation enrichment [13]
1 | VIKDKYPQARY [APTX_Y209_K211Q] | 0.888 | 0.66 | 0.532 | 0.43 | 0.373 | 0.401 | 0.394 | 0.523 | 0.569 | 0.358 | 0.363 | 0.42 | 0.554 | 0.498 | 0.377 | 0.453
2 | ADAHHYLCKEV [JAK2_Y382] | 0.849 | 0.626 | 0.518 | 0.543 | 0.549 | 0.851 | 0.752 | 0.644 | 0.879 | 0.588 | 0.485 | 0.488 | 0.837 | 0.678 | 0.429 | 0.554
3 | FADIAYNFRRG [PAH_Y166_H170R_YF] | 0.799 | 0.822 | 0.541 | 0.45 | 0.429 | 0.637 | 0.411 | 0.462 | 0.649 | 0.43 | 0.409 | 0.39 | 0.602 | 0.966 | 0.396 | 0.539
4 | KQRKEYMHRWQ [IQGAP2_Y710_R714W] | 2.29 | 2.21 | 2.02 | 0.584 | 0.613 | 0.652 | 0.746 | 1.05 | 1.02 | 0.577 | 0.523 | 0.617 | 1.68 | 0.846 | 0.519 | 1.16
5 | LFNQDYPIHSV [GATM_Y227_YF] | 1.21 | 0.725 | 0.432 | 0.81 | 1.07 | 1.46 | 0.787 | 0.984 | 2.09 | 3.19 | 1.01 | 1.24 | 0.707 | 2.31 | 0.796 | 2
6 | LVMFIYAIFWM [SCN1A_Y1684_G1688W] | 1.3 | 1.76 | 1.21 | 0.5 | 0.558 | 0.525 | 0.491 | 0.739 | 1.05 | 0.566 | 0.563 | 0.531 | 0.963 | 1.07 | 0.527 | 0.626
7 | MSLDQYSPSFP [FGFR1_Y776_P772S] | 0.825 | 0.646 | 0.45 | 0.454 | 0.481 | 0.374 | 0.465 | 0.598 | 0.782 | 0.468 | 0.551 | 0.429 | 0.929 | 0.68 | 0.44 | 0.549
8 | ADVLDYIKALN [HPRT1_Y81_L78V] | 0.76 | 0.869 | 0.553 | 0.463 | 0.489 | 0.459 | 0.534 | 0.467 | 0.814 | 0.532 | 0.507 | 0.415 | 0.748 | 0.756 | 0.542 | 0.629
9 | AHAGEYGEEAL [HBA1_Y25_A27E] | 0.745 | 0.599 | 0.473 | 0.582 | 0.821 | 0.664 | 0.736 | 1.01 | 1.47 | 0.66 | 0.576 | 0.615 | 1.35 | 1.25 | 0.544 | 0.793
10 | MSGDVYSTDFF [NTRK2_Y702_R699G_YF] | 0.701 | 1.15 | 0.526 | 4.62 | 2.4 | 1.02 | 1.32 | 0.736 | 1.06 | 1.42 | 5.33 | 0.775 | 0.959 | 1.08 | 6.82 | 1.18
11 | DFRTTYVNANE [KCNH2_Y475_N470D] | 23.1 | 2.23 | 2.81 | 0.378 | 0.44 | 0.366 | 0.512 | 0.405 | 0.781 | 0.414 | 0.491 | 0.38 | 0.649 | 0.732 | 0.415 | 0.596
12 | FCRHNYGVVES [HLA-DRB1_Y112_YF] | 1.19 | 1.05 | 1.86 | 0.446 | 0.526 | 1.32 | 2.62 | 0.545 | 0.843 | 0.587 | 0.503 | 0.555 | 0.632 | 0.569 | 0.44 | 0.661
13 | GIPIQYPIISE [NOG_Y222_W217G] | 0.847 | 0.457 | 0.498 | 0.409 | 0.446 | 0.55 | 0.587 | 0.888 | 1.11 | 0.627 | 0.541 | 0.467 | 1.02 | 0.868 | 0.447 | 0.685

Now from value to sequence, other results behind:

Row | SH2 binding enrichment [14] | SH2 binding enrichment [15] | SH2 binding enrichment [16] | Sequence | phosphorylation enrichment [1] | phosphorylation enrichment [2] | phosphorylation enrichment [3] | phosphorylation enrichment [4] | phosphorylation enrichment [5] | phosphorylation enrichment [6] | phosphorylation enrichment [7] | phosphorylation enrichment [8] | phosphorylation enrichment [9] | phosphorylation enrichment [10] | phosphorylation enrichment [11] | phosphorylation enrichment [12] | phosphorylation enrichment [13]
14 | 0.789 | 0.521 | 0.568 | GISDEYHVIWH [GCDH_Y398_R402W] | 1.09 | 1 | 1.46 | 1.1 | 0.818 | 1.17 | 7.06 | 0.837 | 0.649 | 1.34 | 2.07 | 0.391 | 4.61
15 | 1.11 | 1.08 | 0.758 | SSVKPYRVFCD [FGB_Y266_YF] | 0.481 | 0.432 | 0.432 | 0.394 | 0.7 | 0.74 | 0.453 | 0.419 | 0.34 | 0.678 | 0.701 | 0.392 | 0.552
16 | 0.866 | 0.618 | 0.664 | ETGEPCRLSPE [EIF4G1_Y311_Y311C] | 0.553 | 0.689 | 0.62 | 0.674 | 1.01 | 1.31 | 0.612 | 0.531 | 0.55 | 1.15 | 1.13 | 0.536 | 0.846
17 | 0.873 | 46.5 | 3.88 | NGTVSYAIVAG [CDH23_Y1672_T1671S] | 0.456 | 0.479 | 0.661 | 0.575 | 0.591 | 0.961 | 0.496 | 0.638 | 0.448 | 0.703 | 0.778 | 0.792 | 0.593
18 | 0.746 | 0.719 | 0.488 | KAWTIYRPEDS [ZBP1_Y165] | 0.566 | 0.482 | 0.461 | 0.512 | 0.757 | 1.15 | 0.539 | 0.494 | 0.449 | 1.17 | 1.41 | 0.478 | 0.643
19 | 0.74 | 0.753 | 0.776 | YARECYSALPQ [SARS2_Y52_G51C] | 0.676 | 3.13 | 0.712 | 0.868 | 0.716 | 0.972 | 2.42 | 0.636 | 0.663 | 0.666 | 1.16 | 1.7 | 1.57
20 | 0.72 | 0.617 | 2.12 | PIYEGYALPHA [ACTA1_Y171] | 14.8 | 17.3 | 27.2 | 35.7 | 31.3 | 3.4 | 1.01 | 19.8 | 26.2 | 1.4 | 2.11 | 18.1 | 0.995
21 | 0.525 | 0.474 | 0.802 | RILENYGADID [DNAH5_Y596_L591R] | 0.56 | 0.494 | 0.717 | 0.719 | 0.951 | 1.06 | 0.765 | 0.726 | 0.403 | 1.14 | 1.17 | 0.51 | 0.695
22 | 0.909 | 0.791 | 0.73 | VPLATYMQIYK [RPL21_Y30_R32Q] | 1.16 | 2.01 | 1.98 | 0.737 | 0.565 | 0.636 | 0.448 | 0.975 | 0.315 | 0.51 | 0.749 | 0.541 | 0.53
23 | 1.08 | 0.931 | 0.677 | LKVDVYRRSHK [FUT3_Y222_G223R] | 0.753 | 0.577 | 0.656 | 0.496 | 0.908 | 1.46 | 0.611 | 0.44 | 0.485 | 1.78 | 1.11 | 0.546 | 0.85
24 | 0.746 | 0.733 | 0.543 | SVEELYAIPPD [PEAK1_Y797] | 3.28 | 4.24 | 3.15 | 13.6 | 9.56 | 1.59 | 5.57 | 2.88 | 5.23 | 1.78 | 3.92 | 9.81 | 5.64
25 | 0.764 | 0.386 | 0.579 | DFLEKYFKFGS [NNMT_Y24_YF] | 0.627 | 0.521 | 0.525 | 0.587 | 0.936 | 1.41 | 0.491 | 0.437 | 0.514 | 1.8 | 1.12 | 0.564 | 0.826
26 | 1.83 | 1.6 | 1.19 | LHRAHYDLRHT [AHSG_Y314] | 0.556 | 0.876 | 0.668 | 0.78 | 0.908 | 1.11 | 0.707 | 0.617 | 0.8 | 0.725 | 0.621 | 0.418 | 1.1
27 | 0.782 | 1.02 | 2.39 | ILGRYYETSSI [PAX2_Y73_G76S] | 0.466 | 0.524 | 0.527 | 0.476 | 0.55 | 0.705 | 0.86 | 0.547 | 0.629 | 0.632 | 0.724 | 0.594 | 0.802
28 | 0.834 | 0.792 | 0.691 | VMTSKYRGGGG [HBA1_Y141_L137M] | 0.363 | 0.39 | 0.332 | 0.427 | 0.384 | 0.491 | 0.444 | 0.378 | 0.378 | 0.424 | 0.433 | 0.36 | 0.467
29 | 1.34 | 1 | 0.539 | LHSEAYLKFNE [PBRM1_Y1610_I1614N_YF] | 0.707 | 0.488 | 0.438 | 0.651 | 0.922 | 1.31 | 0.72 | 1.05 | 0.493 | 1.06 | 1.53 | 0.737 | 0.945
30 | 0.873 | 0.452 | 0.71 | LNLKDYNLVGG [GNAQ_Y356_E355D] | 0.482 | 0.538 | 0.491 | 0.428 | 0.465 | 0.665 | 0.523 | 0.481 | 0.464 | 0.508 | 0.582 | 0.412 | 0.565
31 | 0.759 | 0.595 | 0.489 | SKNSKYNAEST [PSEN1_Y315] | 0.425 | 0.351 | 0.309 | 0.426 | 0.52 | 0.609 | 0.339 | 0.363 | 0.396 | 0.673 | 0.482 | 0.35 | 0.366
32 | 0.61 | 0.47 | 0.3 | ARRHPYFYAPE [ALB_Y172] | 0.972 | 0.575 | 0.488 | 0.553 | 0.605 | 0.766 | 1.87 | 0.641 | 0.58 | 0.8 | 0.883 | 0.893 | 1.08
33 | 0.887 | 0.837 | 0.562 | SHEELYKWFTS [DYNC1H1_Y3051] | 1.55 | 1.25 | 0.608 | 0.577 | 1.33 | 1.21 | 5.57 | 0.918 | 3.4 | 1.05 | 1.28 | 4.28 | 3.6
